The values below come from patent US20240409645A1 (DUALYX, published 2024).

Substitutions are numbered along the chain they refer to.

The labels stand for the following.
T1: human IL-2Rα (human, UniProt P01589 22-240, limits assumed)
T1 construct: recombinant protein; also called hu IL-2R; human IL-2Ra
T1 sequence: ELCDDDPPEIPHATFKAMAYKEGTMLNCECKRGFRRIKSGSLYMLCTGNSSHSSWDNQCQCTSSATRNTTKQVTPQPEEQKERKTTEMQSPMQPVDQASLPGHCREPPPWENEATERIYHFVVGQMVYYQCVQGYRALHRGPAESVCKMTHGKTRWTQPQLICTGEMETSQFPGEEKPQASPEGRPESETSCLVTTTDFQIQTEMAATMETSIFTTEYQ

T2: human IL-2Rγ (common cytokine receptor γ-chain) (human, UniProt P31785 23-262, limits assumed)
T2 construct: Recombinant protein coated on the plate or immobilised on a CM5 chip; also called hu IL-2R; CD132
T2 sequence: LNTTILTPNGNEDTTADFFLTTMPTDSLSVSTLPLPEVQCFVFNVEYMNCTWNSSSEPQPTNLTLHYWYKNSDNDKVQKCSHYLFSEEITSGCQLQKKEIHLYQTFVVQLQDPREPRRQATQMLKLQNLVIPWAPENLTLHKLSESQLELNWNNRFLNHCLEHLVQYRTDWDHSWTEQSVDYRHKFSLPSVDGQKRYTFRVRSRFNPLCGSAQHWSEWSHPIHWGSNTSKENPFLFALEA

B1: 1-MP01H01 (VHH)
VHH: EVQLVESGGGLVQAGGSLRLSCAASGRTFRTHNMGWFRRAPGKEREFVAAISWNVDNTLYADSVKGRFTISRDNGRNMVYLQMNSLKPEDTAVYYCAADNIPLSSDVAATATEYDYWGQGTQVTVSS
notes: periplasmic extract; also called FJ1427_P035MP01H01
B2: FJ1427_P035MP01H11 (VHH)
VHH: B1 VHH with E1Q, G75D, Y95F, A108R, Y114F, D115G, Q122R
notes: periplasmic extract; also called clone nr; 88
B3: FJ1427_P035MP01D08 (VHH)
VHH: B1 VHH with R27G, H32R, I51V, T58K, D62G, V107M, A108R, A109P
notes: periplasmic extract; also called clone nr; 60
B4: FJ1427_P035MP01H08 (VHH)
VHH: B1 VHH with G10R, A14S, T28A, R30S, T58K, D62N, T69A, V107M, A108R, Y116V
notes: periplasmic extract; also called clone nr; 64
B5: FJ1427_P035MP01E05 (VHH)
VHH: B1 VHH with E1Q, K43E, A50V, T58K, A108R, Y114F, D115G
notes: periplasmic extract; also called clone nr; 37
B6: FJ1427_P035MP01G01 (VHH)
VHH: B1 VHH with E1Q, V5Q, G75D, Y95F, A108R, Y114F, D115G, Q122R
notes: periplasmic extract; also called clone nr
B7: 6-MP01G05 (VHH)
VHH: QVQLQESGGGLVQAGGSLRLSCAASGRTFSSYAMGWFRQAPGKEREFVAVISWNVDNTEYTDSVKGRFTISRDNDKNMVYLQMNSLKPEDTAVYYCAADSIPLSSDMSPTATEYGYWGQGTQVTVSS
notes: periplasmic extract; also called FJ1427_P035MP01G05
B8: FJ1427_P035MP01A11 (VHH)
VHH: QVQLVESGGGLVQPGGSLRLSCAASGRTFETHNMGWFRRAPGKEREFVAVISWNVDSTEYTDSVKGRFTISRDNDKNMVYLQMNSLKPEDTGVYYCAADNIPLSSDMSPTAAEYGYWGQGTQVTVSS
notes: periplasmic extract; also called clone nr; 81
B9: 07-MP01G08 (VHH)
VHH: EVQLVESGGGLVQAGGSLRLSCAASGRAFSMYNMGWFRQAPGKEREFVAATGWSGANTPYADSVKGRFTISRDNTQNTVYLQMNSLKPEDTATYYCAADSIRLRSDVTRIPLEYDYWGQGTQVTVSS
notes: periplasmic extract; also called FJ1427_P035MP01G08
B10: 5-MP01F05 (VHH)
VHH: EVQLVESGGGLVQAGGSLRLSCAASIRAFTTWSMAWFRQAPGKEREYVARINVSGSVTYYADFVKGRFTISRDNAKKTMYLEMNNLKPEDTALYYCAADRTGVGTNDYNYWGQGTQVTVSS
notes: periplasmic extract; also called FJ1427_P035MP01F05
B11: FJ1427_P035MP01D09 (VHH)
VHH: QVQLVESGGGLVQPGGSLRLSCAASGFTFSNNFMSWVRQAPGKGLEWVSTISYGGESTTYAESVKGRFTISRDNAKNTLYLQMNNLKPEDTAVYYCAKATSYDSIRSGSRGQGTQVTVSS
notes: periplasmic extract; also called clone nr; 68
B12: 8-MP01C12 (VHH)
VHH: B11 VHH with A24T, W47F, S63A, V93I, D103T, S107G, G108A, S109P
notes: periplasmic extract; also called FJ1427_P035MP01C12
B13: FJ1427_P035MP01G04 (VHH)
VHH: B11 VHH with G54F, E56D, T59R, A75E, Y80H, Q112R
notes: periplasmic extract; also called clone nr; 31
B14: FJ1427_P035MP01F03 (VHH)
VHH: B11 VHH with I105V
notes: periplasmic extract; also called clone nr; 22
B15: FJ1427_P035MP01H05 (VHH)
VHH: B11 VHH with Q1E, G54F, E56D, Q112R
notes: periplasmic extract; also called clone nr; 40
B16: FJ1427_P035MP01E11 (VHH)
VHH: B11 VHH with G54F, E56D, T59R, A75E, Q112R
notes: periplasmic extract; also called clone nr; 85
B17: FJ1427_P035MP01C03 (VHH)
VHH: B11 VHH with Q1E, A24T, S30R
notes: periplasmic extract; also called clone nr; 19
B18: 2-MP01A02 (VHH)
VHH: B11 VHH with A24T, S30R
notes: periplasmic extract; also called FJ1427_P035MP01A02
B19: FJ1427_P035MP01D03 (VHH)
VHH: B11 VHH with Q1E, A24T, S30R, K43E
notes: periplasmic extract; also called clone nr; 20
B20: 3-MP01E03 (VHH)
VHH: QVQLVESGGGLVQAGGSLRLSCTASGRTLSSYSMAWFRQAADKGREFVTAISSSGVVTHVLDSVKGRFTISRDNAKNTVYLQMNSLQPEDTALYFCAGTASSYSTYEANYNYWGQGTLVTVSS
notes: periplasmic extract; also called FJ1427_P035MP01E03
B21: FJ1427_P035MP01H07 (VHH)
VHH: B20 VHH with Q1E, T23A, S31G, S33A, A40P, A41P, V56I, G98A, T105D
notes: periplasmic extract; also called clone nr; 56
B22: 10-MP05F03 (VHH)
VHH: QVQLVESGGGLVQAGGSLRLSCAASGIPFDNYAMGWFRQAPGKEREFVAARDLEGIITRYGDSVKGRFTISRGNAKNTVFLQMNSLKPEDTAVYYCAARDGGVVAGSRSSAQYNYWGQGTQVTVSS
notes: periplasmic extract; also called FJ1427_P035MP05F03
B23: FJ1427_P035MP01H10 (VHH)
VHH: QVQLVESGGGLVETGGSLRLSCAASGITFNDHTMAWFRQAPGKEREFVAARDWSDIITRYASSVKGRFTISRDNAGNTGFLQMNSLRPEDTAVYYCAAREGGVVAGVRSGAPYDYWGQGTQVTVSS
notes: periplasmic extract; also called clone nr; 80
B24: FJ1427_P035MP04A04 (VHH)
VHH: QVQLVESGGGLVQAGESLRLSCAASGPTASRVAVAWFRQVPGKEREFVAVVNRPGTMTKYADSVKGRFTISRDSAKNTVYLQMNSLKPEDTAVYYCAADSVPYGRPYYFQTSAGNYDYWGQGTQVTVSS
notes: VHH in periplasmic extract; also called clone nr
B25: FJ1427_P035MP04D08 (VHH)
VHH: B24 VHH
notes: as for B24
B26: FJ1427_P035MP04A11 (VHH)
VHH: B24 VHH
notes: as for B24
B27: FJ1427_P035MP04H08 (VHH)
VHH: B24 VHH with Q1E
notes: as for B24
B28: FJ1427_P035MP04G09 (VHH)
VHH: B24 VHH with V5Q, E16G, A29F, A35G, V50A, G55A, S74N, Y80D, L86M, N115E
notes: as for B24
B29: FJ1427_P035MP04C11 (VHH)
VHH: B24 VHH with A14H, E16G, A29F, A35G, T56S, T69N, S74T, Q110T, N115D
notes: as for B24
B30: FJ1427_P035MP04B03 (VHH)
VHH: B24 VHH with V5Q
notes: as for B24

One test deals with T1, human IL-2Rα. Nature of the test: ELISA, P.E. on coated antigen. Here is the method: (§1) In a binding ELISA, human or mouse IL-2Rα, IL-2Rβ and IL-2Rγ proteins were coated directly on maxisorp microtiter plates overnight at 4° C. Free binding sites were blocked using 4% Marvel in PBS for 1 hour. Next, 1:5 dilution of P.E. in 1% Marvel/PBS were added to wells and incubated for 1 hour. […] Binding specificity was determined based on O.D. at 450 nm values compared to negative controls.
(In general: In an ELISA, binding on a coated surface is turned into a signal by an enzyme label.)
Regarding B1, the “OD (PE binding ELISA)” value worked out at 1.71 OD450 nm.

On to B2, for which the “OD (PE binding ELISA)” value was found to be 2.62 OD450 nm. The same measure, in the same setting: under B3 stands 2.62 OD450 nm. As for B4, the “OD (PE binding ELISA)” value was 2.6 OD450 nm. B5: the “OD (PE binding ELISA)” value worked out at 2.59 OD450 nm.

As to B6, the “OD (PE binding ELISA)” value amounted to 2.52 OD450 nm. On the same count and under the same terms, under B7 stands 1.79 OD450 nm; under B8, 2.81 OD450 nm; under B9, 2.57 OD450 nm. The same measure, in the same setting: next, B10: 2.62 OD450 nm; B11: 2.57 OD450 nm; B12: 2.53 OD450 nm. In the case of B13, the “OD (PE binding ELISA)” value stood at 2.79 OD450 nm. On the same count and under the same terms, under B14 stands 2.87 OD450 nm. For the molecule B15, the “OD (PE binding ELISA)” value was 2.65 OD450 nm.

As for B16, the “OD (PE binding ELISA)” value was found to be 2.69 OD450 nm. On to B17, for which the “OD (PE binding ELISA)” value stood at 2.84 OD450 nm.

Consider B18, for which the “OD (PE binding ELISA)” value is 2.62 OD450 nm. Still for that read-out and setting: next, B19: 2.59 OD450 nm.

For B20, the “OD (PE binding ELISA)” value amounted to 2.54 OD450 nm. Take B21: the “OD (PE binding ELISA)” value came to 2.14 OD450 nm. As to B22, the “OD (PE binding ELISA)” value is 2.46 OD450 nm. As for B23, the “OD (PE binding ELISA)” value was found to be 2.47 OD450 nm.

In the next test the target is T1, human IL-2Rα. Briefly: SPR, P.E. on immobilised antigen. Here is the method:
(§2) SPR was performed to determine dissociation rates using Biacore 3000 instrument (GE Healthcare). Briefly, human and mouse IL-2R proteins were immobilized on carboxylmethyl dextran sensor chip (CM5) at approximately 2500 RUs using amine coupling in acetate buffer (GE Healthcare). The VHH-containing P.E. were loaded with a flow rate of 30 uL/min and the off-rates were measured over a 120s period.
One may read the koff as the rate constant with which the complex falls apart. In the case of B1, the koff was determined as 0.0229 s⁻¹.

In the case of B2, the koff was 0.000725 s⁻¹. On the same count and under the same terms, next, B3: 0.000842 s⁻¹; B5: 0.000498 s⁻¹. On the same count and under the same terms, next, B6: 0.000414 s⁻¹; B7: 0.0206 s⁻¹. Same read-out and setting: under B8 stands 0.000778 s⁻¹. For B9, the koff came to 0.00184 s⁻¹. Against the preceding molecule, the koff is about 2.4-fold higher. On the same count and under the same terms, next, B10: 0.00042 s⁻¹; B11: 0.00212 s⁻¹.

The molecule B12 gave a koff of 0.000383 s⁻¹. On the same count and under the same terms, under B13 stands 0.00107 s⁻¹; under B14, 0.00327 s⁻¹. The same measure, in the same setting: next, B15: 0.00276 s⁻¹; B16: 0.000704 s⁻¹. On the same count and under the same terms, under B17 stands 0.00144 s⁻¹; under B18, 0.00153 s⁻¹. B19 had a koff of 0.00189 s⁻¹.

B20 came in with a koff of 0.000799 s⁻¹. On the same count and under the same terms, under B21 stands 0.00112 s⁻¹. For B22, the koff turned out to be 0.000639 s⁻¹.

The next test addresses T2, human IL-2Rγ (common cytokine receptor …). Briefly: SPR off-rate ranking, periplasmic extract on immobilised protein. Here is the method:
as §2
Regarding B24, the koff is 0.0378 s⁻¹. Same read-out and setting: under B25 stands 0.0195 s⁻¹; under B26, 0.0165 s⁻¹. Same read-out and setting: next, B27: 0.048 s⁻¹; B28: 0.0658 s⁻¹; B29: 0.0693 s⁻¹. Same read-out and setting: under B30 stands 0.0421 s⁻¹.

Another test shares this target. Briefly: PE binding ELISA, periplasmic extract on coated protein. Here is the method: as §1
Regarding B24, the “OD (PE binding ELISA)” value was 1.31 OD450 nm.

With B25, the “OD (PE binding ELISA)” value worked out at 0.579 OD450 nm.

For B26, the “OD (PE binding ELISA)” value amounted to 0.593 OD450 nm.

With B27, the “OD (PE binding ELISA)” value turned out to be 1.3 OD450 nm.

Turning to B28, the “OD (PE binding ELISA)” value worked out at 0.559 OD450 nm. B29: the “OD (PE binding ELISA)” value was determined as 0.912 OD450 nm. In the case of B30, the “OD (PE binding ELISA)” value was 1.37 OD450 nm.
